# Data: patent publication US20240383982A1 (Genmab, published 2024)
# T1: B7H4-IgV/B7H3-IgC
# T1 construct: also called chimeric molecule with the IgV domain of B7H4 and the IgC domain of B7H3
# T1 full-length chimeric protein on cells: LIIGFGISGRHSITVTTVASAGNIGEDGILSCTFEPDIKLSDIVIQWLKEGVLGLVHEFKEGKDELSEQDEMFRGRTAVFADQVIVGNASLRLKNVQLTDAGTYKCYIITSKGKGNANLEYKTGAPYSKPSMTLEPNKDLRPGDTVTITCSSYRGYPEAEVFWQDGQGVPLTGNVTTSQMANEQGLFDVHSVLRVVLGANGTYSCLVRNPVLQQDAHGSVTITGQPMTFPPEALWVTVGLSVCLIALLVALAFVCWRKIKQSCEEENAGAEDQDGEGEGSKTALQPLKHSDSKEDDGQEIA
# T2: B7H3
# T2 construct: also called human B7H3
# T2 full-length protein on cells: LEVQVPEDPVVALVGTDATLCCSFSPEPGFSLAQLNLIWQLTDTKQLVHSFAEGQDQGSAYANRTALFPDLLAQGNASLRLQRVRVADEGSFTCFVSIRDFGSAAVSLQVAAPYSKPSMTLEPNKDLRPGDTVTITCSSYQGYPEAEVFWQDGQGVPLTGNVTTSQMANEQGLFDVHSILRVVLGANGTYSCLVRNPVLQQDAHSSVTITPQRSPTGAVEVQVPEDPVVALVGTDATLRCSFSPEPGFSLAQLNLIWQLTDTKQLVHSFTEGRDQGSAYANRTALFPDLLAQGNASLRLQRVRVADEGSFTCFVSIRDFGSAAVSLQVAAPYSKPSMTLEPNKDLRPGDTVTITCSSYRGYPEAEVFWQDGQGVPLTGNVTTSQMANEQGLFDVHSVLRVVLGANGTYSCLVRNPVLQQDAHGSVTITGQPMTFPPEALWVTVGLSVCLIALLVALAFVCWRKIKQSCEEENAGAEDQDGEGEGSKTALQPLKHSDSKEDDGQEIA
# T3: B7H3-IgV/B7H4-IgC
# T3 construct: also called chimeric molecule with the IgV domain of B7H3 and the IgC domain of B7H4
# T3 full-length chimeric protein on cells: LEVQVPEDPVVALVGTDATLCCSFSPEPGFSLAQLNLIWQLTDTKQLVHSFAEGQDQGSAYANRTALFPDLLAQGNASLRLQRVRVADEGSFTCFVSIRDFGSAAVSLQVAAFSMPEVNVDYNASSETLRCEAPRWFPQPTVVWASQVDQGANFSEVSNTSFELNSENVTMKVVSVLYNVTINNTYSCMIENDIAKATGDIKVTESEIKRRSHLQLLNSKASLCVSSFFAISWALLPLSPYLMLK
# Assays:
# B7H4-IgV/B7H3-IgC = molecular target: T1, B7H4-IgV/B7H3-IgC; assay: flow cytometry, transiently transfected HEK cells, antibody at 10 µg/mL, MFI as % of the control antibody of the panel [continued) III]
# Experimental: (§1) Expression constructs were prepared encoding human B7H4, human B7H3 (Uniprot accession no. Q5ZPR3-1; SEQ ID NO: 9), or a chimeric molecule containing the IgV domain of B7H3 and the IgC domain of B7H4 (B7H3-IgV/B7H4-IgC; SEQ ID NO: 11), or a chimeric molecule containing the IgV domain of B7H4 and the IgC domain of B7H3 (B7H4-IgV/B7H3-IgC; SEQ ID NO: 10). HEK cells were transiently transfected to express these constructs.
# (§2) Cells (3×10⁴ cell/well) were incubated in polystyrene 96-well round-bottom plates (Greiner bio-one, cat. no. 650101) with serial dilutions of antibodies (range 0.0046 to 10 μg/mL in 3-fold dilution steps) in 50 μL PBS/0.1% BSA/0.02% azide (FACS buffer) at 4° C. for 30 min. After washing twice in FACS buffer, cells were incubated with secondary antibody at 4° C. for 30 min. As a secondary antibody, R-Phycoerythrin (PE)-conjugated goat-anti-human IgG F(ab′)₂ (1:500 in staining buffer; Jackson ImmunoResearch Laboratories, Inc., West Grove, PA, cat. no. 109-116-098) was used. Next, cells were washed twice in FACS buffer, re-suspended in 20 μL FACS buffer and analyzed on an iQue Screener (Intellicyt Corporation, USA).
# B7H3 = molecular target: T2, B7H3; assay: flow cytometry, transiently transfected HEK cells, MFI as % of IgG1-B7H3-BRCA84D
# Experimental: as §1, §2
# B7H3-IgV/B7H4-IgC = molecular target: T3, B7H3-IgV/B7H4-IgC; assay: flow cytometry, transiently transfected HEK cells, antibody at 10 µg/mL, MFI as % of the control antibody of the panel
# Experimental: as §1, §2
Binder,binding result (B7H4-IgV/B7H3-IgC),binding result (B7H3),binding result (B7H3-IgV/B7H4-IgC)
"bsIgG1-huCD3-FEALxB7H4-C2-FEAR (bispecific antibody, also called bslgG1-huCD3-FEALxB7H4-C2-FEAR) heavy 1: not shown light 1: not shown heavy 2: EVQLVQSGAEVKKPGASVKVSCKASGYTFTSYWIGWVRQAPGQGLEWIGDIYPGGGYTNYNEKFKGRVTITRDTSTSTAYLELSSLRSEDTAVYYCARLDGSSYRGAMDSWGQGTLVTVSSASTKGPSVFPLAPSSKSTSGGTAALGCLVKDYFPEPVTVSWNSGALTSGVHTFPAVLQSSGLYSLSSVVTVPSSSLGTQTYICNVNHKPSNTKVDKRVEPKSCDKTHTCPPCPAPEFEGGPSVFLFPPKPKDTLMISRTPEVTCVVVAVSHEDPEVKFNWYVDGVEVHNAKTKPREEQYNSTYRVVSVLTVLHQDWLNGKEYKCKVSNKALPAPIEKTISKAKGQPREPQVYTLPPSREEMTKNQVSLTCLVKGFYPSDIAVEWESNGQPENNYKTTPPVLDSDGSFFLYSRLTVDKSRWQQGNVFSCSVMHEALHNHYTQKSLSLSPGK light 2: DIQMTQSPSSLSASVGDRVTITCKASQGFNKYVAWYQQKPGKAPKLLIYYTSTLQPGVPSRFSGSGSGRDYTLTISSLQPEDFATYYCLQYGNLLYAFGQGTKVEIKRTVAAPSVFIFPPSDEQLKSGTASVVCLLNNFYPREAKVQWKVDNALQSGNSQESVTEQDSKDSTYSLSSTLTLSKADYEKHKVYACEVTHQGLSSPVTKSFNRGEC",binds,no binding (tested: 10 µg/mL),
"bsIgG1-huCD3-FEALxB7H4-C3-FEAR (bispecific antibody, also called bslgG1-huCD3-FEALxB7H4-C3-FEAR) heavy 1: not shown light 1: not shown heavy 2: EVQLVQSGAEVKKPGASVKVSCKASGYTFTNFWIHWVRQAPGQGLEWIGEIDPSDSYTNYNQKFKGRVTITRDTSTSTAYLELSSLRSEDTAVYYCAREITTVDYWGQGTLVTVSSASTKGPSVFPLAPSSKSTSGGTAALGCLVKDYFPEPVTVSWNSGALTSGVHTFPAVLQSSGLYSLSSVVTVPSSSLGTQTYICNVNHKPSNTKVDKRVEPKSCDKTHTCPPCPAPEFEGGPSVFLFPPKPKDTLMISRTPEVTCVVVAVSHEDPEVKFNWYVDGVEVHNAKTKPREEQYNSTYRVVSVLTVLHQDWLNGKEYKCKVSNKALPAPIEKTISKAKGQPREPQVYTLPPSREEMTKNQVSLTCLVKGFYPSDIAVEWESNGQPENNYKTTPPVLDSDGSFFLYSRLTVDKSRWQQGNVFSCSVMHEALHNHYTQKSLSLSPGK light 2: DIQMTQSPSSLSASVGDRVTITCSATSSISYMHWYQQKPGKAPKGWIYDTSKLAHGVPSRFSGSGSGTDFTLTISSLQPEDFATYYCHQRRSYPFTFGQGTKVEIKRTVAAPSVFIFPPSDEQLKSGTASVVCLLNNFYPREAKVQWKVDNALQSGNSQESVTEQDSKDSTYSLSSTLTLSKADYEKHKVYACEVTHQGLSSPVTKSFNRGEC",,no binding (tested: 10 µg/mL),binds
